From the nanobody polyreactivity screen of Harvey et al. (2022)

Test: yeast display, Sf9 membrane polyspecificity reagent, FACS + sequencing; frameworks hold sequencing errors
Procedure, shortened: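 Polyreactivity labels are assigned by the sorting gate from which each nanobody was recovered. The gates were low and high (top ~1%), set on anti-HA fluorescence for expression and streptavidin fluorescence for reagent binding. Before sorting, galactose-induced (36–48 hours) yeast display cells were stained for 1 hour at 4 °C with 10% biotinylated, detergent-solubilized Sf9 membrane reagent.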

| Sequence | polyreactivity (PSR sort gate) |
| --- | --- |
| QVQLVESGGGLVQAGGSLRLSCAASGSTFDGYAMGWYRQAPGKERELVASISWDDVRTYYADSVKGRFTISRDNAKNTVYLQMNSLKPEDTAVYDCAKGDIEYFWSRIYGYWGQGTQVTVSS | low polyreactivity |
| QVQLVESGGGLVQAGGSLRLSCAASGSTFDGYVMGWYRQAPGKEREFVAAISWSGGSTYYADSVKGRFTISRDNAKYTVYLQMNRLKREDTAVYYCAARVRRQHGYWGQGTQVTVST | high polyreactivity |
| QVQLVESGGGLVQAGGSLRLSCAASGSTFDHYAMGWYRQAPGKERELVASITLSGGSTYYADSVKGRFTISRDNAKNTVYLQMNSLKPEDTAVYYCNVDYPFYQYGYYYNYNYWGQGTQVTVSS | low polyreactivity |
| QVQLVESGGGLVQAGGSLRLSCAASGSTFDIYAMGWYRQAPGKERELVAAISNSGDTYYADSVKGRFTISRDNAKNTVYLQMNSLKPEDTAVYYCNADFHDWFDYWGQGTQVTVSS | high polyreactivity |
| QVQLVESGGGLVQAGGSLRLSCAASGSTFDIYVMGWYRQAPGKEREFVAAITTTTGRTNYADSVKGRFTISRDNAKNTVYLQMNSLKPEDTAVYYCAAYVTWGKLWYGYWGQGTQVTVSS | high polyreactivity |
| QVQLVESGGGLVQAGGSLRLSCAASGSTFDIYVMGWYRQAPGKERELVAAISRVGNTSYADSVKGRFTISRDNAKNTVYLQMNSLNPEDTAVYYCAADAPSWYDRQYDYWGQGNQVTVSS | low polyreactivity |
| QVQLVESGGGLVQAGGSLRLSCAASGSTFDKYAMGWYRQAPGKERELVAAITWGGGSTYYADSVKGRFTISRDNAKNTVYLQMNSLKPEDTAVYYCAAEQGSSVLYDSWGQGTQVTVSS | low polyreactivity |
| QVQLVESGGGLVQAGGSLRLSCAASGSTFDKYAMGWYRQAPRKERELVAAITWGGGSTYYADSVKGRITISRDNAKNTVYLPMNSLKPEDTAVYYCAAEQRSSVLYDSWGQGTQVTVSS | low polyreactivity |
| QVQLVESGGGLVQAGGSLRLSCAASGSTFDKYSMGWYRQAPGKERELVAAITWGGGSTYYADSVKGRFTISRDNAKNTVYLQMNSLKPEDTAVYYCAAEQGSSVLYDSWGQGTQVTVSS | low polyreactivity |
| QVQLVESGGGLVQAGGSLRLSCAASGSTFDLYAMGWYRPAPGKERELVAAITSSGGRTYYADSVKGRFTISRDNAKNTVYLQMNSLKPEDTAVYYCAATSSGGYYDGYNYWGQGTQVTVSS | high polyreactivity |
| QVQLVESGGGLVQAGGSLRLSCAASGSTFDNYAMGWYRQAPGKERELVAAINSRGGRTYYADSVKGRFTISRDNAKNTVYLQMNSLKPEDTAVYYCAAVGATHRFDYWGQGTQVTVSS | high polyreactivity |
| QVQLVESGGGLVQAGGSLRLSCAASGSTFDPNDMGWYRPAPGKERQLVASITSRGGSTYYADSVKGRFTISRDNAKNTVYLQMNSLKPEDTAVYYCAAVGGATYSWNGYSWYPWHNYWGQGTQVTVSS | low polyreactivity |
| QVQLVESGGGLVQAGGSLRLSCAASGSTFDPYAMGWSRQAPGKEREMVAAISTSVGGTYYADSVKGRFTISRDYAKNTVNLQMNSLKPEDTAVYYCAVDYSDVQAYTSNEEDYWGQGTQVTVSS | low polyreactivity |
| QVQLVESGGGLVQAGGSLRLSCAASGSTFDQNVMGWYRQAPGKERELVATINFSGDSTYYADSVKGRFTISRDNAKNTVYLQMNSLKPEDTAVYYCAVDWGEYIDTSVKRDISYYWGQGTQVTVSS | low polyreactivity |
| QVQLVESGGGLVQAGGSLRLSCAASGSTFDRNVMGWYRQAPGKERELVAAISRVSSTNYADSVKGRFTFSRDNAKNTVYLLMNSLKPEDTAVYYCAADRAGSIMNYWGQGTQVTVSS | low polyreactivity |
| QVQLVESGGGLVQAGGSLRLSCAASGSTFDRYTLGWYRQAPGKERELVAGISNSGGSTYYADSVKGRFTISRDNAKNTVYLQMNSLKPEDTAVYYCAAAYSIRRILYYYWGQGTHVTVSS | high polyreactivity |
| QVQLVESGGGLVQAGGSLRLSCAASGSTFDSNGMGWYRQAPGKERELVADITYSDGRTYADSVKGRFTISRDNAKNTVYLQMNSLKPEDTAVYYCAVSDSVYAGFTSYDYWGQGTQVTVSS | low polyreactivity |
| QVQLVESGGGLVQAGGSLRLSCAASGSTFDSNTMRWYRQAPGKETELVAAITVSGGSTHYADSVKGRFTISRDNAKNTVYLQMNSLKPEDTAVYYCNRRSYGYGAFSGYDYWGQGTQVTVSS | low polyreactivity |
| QVQLVESGGGLVQAGGSLRLSCAASGSTFDSNVMGWYRQAPGKERELVAAIDLSGGITYYADSVKGRFTISRDNAKNTVYLQMNSLKPEDTAVYYCATDEGYRYPHVDLTEVYYWGQGTQVTVSS | low polyreactivity |
| QVQLVESGGGLVQAGGSLRLSCAASGSTFDSYAMGWYRQAPGKEGELVAAITGGGDTNYADSVKGRFTISRDNAKNTVYLQMNSLKPEDTAVYYCAAYQRRGNYQMDYWGQGTQVTVSS | low polyreactivity |
| QVQLVESGGGLVQAGGSLRLSCAASGSTFDTNAMGWYRQAPGKDRELVAAITSGGNTYADSVKGRFTISRDNAKNTVYLQMNSLKPEDTAVYYCAAEDVYTGWYDYWGQGTQVTVSS | low polyreactivity |
| QVQLVESGGGLVQAGGSLRLSCAASGSTFDTNAMGWYRQAPGKERELVATITSIGGSTYADSVKGRFTISRDNAKNTVYLQMNSLKPEDNAVYYCATDYVEIDYYYDYWGQGTQVTVSS | low polyreactivity |

| Sequence | polyreactivity (PSR sort gate) |
| --- | --- |
| QVQLVESGGGLVQAGGSLRLSCAASGSTFDTYAMGWYRPAPGKERELVAGMTRRGGRTYYADSVKGRFTISRDTAKNTVYLQKNSLKPEDTADYYCNAVPQRPVGKLDHWGQGTQVTVSS | high polyreactivity |
| QVQLVESGGGLVQAGGSLRLSCAASGSTFDVNTMGWYRQAPGKERELVAAIRLRGGSTYYADSVKGRFTISRDNAKNTVYLQMYSLKPEDTEVSYCAADYTLIYDYWGQGTQVTVSS | low polyreactivity |
| QVQLVESGGGLVQAGGSLRLSCAASGSTFDVYAMGWYIQAPGKERELVASIRWSGGSTNYADSVKGRFTISRDNAKNTVYLQMNSLKPEDTAVYYCNADVGTGFRPGQYDYWGQGTQVTLSS | low polyreactivity |
| QVQLVESGGGLVQAGGSLRLSCAASGSTFDVYDMGWYRQAPGKERELVASISWDGDRTYYADSVKGRFTISRDNAKNTVYLQMNSLKPEDTAVYYCAVDSASDTIYDYWGQGTQVTVSS | low polyreactivity |
| QVQLVESGGGLVQAGGSLRLSCAASGSTFDWYAMGWYRQAPGKEREFVAAIDQDEDSTYYADSVKGRFTISRDNAKNTVYLQMNSLKPEVTAVYYCAADHAWYSLFDYWGQGTQVTVSS | low polyreactivity |
| QVQLVESGGGLVQAGGSLRLSCAASGSTFDWYTMGWYRQATGKERELVADITSGGSTYYADSVKGRFTISRDNAKNTVYLQMNSLKPEDTAAYYCNAYLYTWRWAFDYWGQGTQVTVSS | high polyreactivity |
| QVQLVESGGGLVQAGGSLRLSCAASGSTFDYNAKGSYRQAPGKERELVAVISSSGGSTYYADSVKGRFTISRDIAMNTVYLQMNSLKPVDTAVYYCAALYRNYGSSYAYYYWGLGTQVTVSS | low polyreactivity |
| QVQLVESGGGLVQAGGSLRLSCAASGSTFDYNAMGWYRQAPGKERELVAAISARGTSTYYADSVKGRFTISRDNAKTTVYLQMNSLKPEDTAVYYCAARIHTAYYIFGYWGQGTQVTVSS | high polyreactivity |
| QVQLVESGGGLVQAGGSLRLSCAASGSTFDYNAMGWYRQAPGKERELVAAISWRGGGTYYADSVKGRFTISRDNAKNTVYLQMNSLKPEDTAVYYCNTVSRNGFYRSRHDYWGQGTQVTVSS | low polyreactivity |
| QVQLVESGGGLVQAGGSLRLSCAASGSTFDYYAMGWSRQAPGKERELVAAITGTGGSTYYADSEKGRFTISRNNAKNTVYLQMNSLKPEDTAVYYCNRVSGTRRHTMDYWGQGTQVTVSS | low polyreactivity |
| QVQLVESGGGLVQAGGSLRLSCAASGSTFDYYAMGWYRQAPGKERELVAAISGSGGSTYYADSVKGRITISRDNAKNTVYLQMNSLKPEDTAVYYCATVRSRLFGQYYYWGQGTQVTVSS | high polyreactivity |
| QVQLVESGGGLVQAGGSLRLSCAASGSTFDYYARGWYRQAPGKERELVAGISSSGGRTYYADSVKGRFTISRDNAKNTVYLQMNSLKPEDTAVYYCAARIRVRKHEAFDYWGQGTQVTVSS | low polyreactivity |
| QVQLVESGGGLVQAGGSLRLSCAASGSTFDYYDMGWYRQAPGKERELVAAISSGGDSTYYADSVKGRFTISRDNAKNTVYLQMNSLKPEDTAVYYCAAAVYYGQSVWYYYWGQGTQVTVSS | high polyreactivity |
| QVQLVESGGGLVQAGGSLRLSCAASGSTFDYYDMGWYRQAPGKERELVAAISYSGTSTYYADSVKGRFTISRDNAKNTVYLQMNSLKPEDTAVYYCAKVFPDWYWYDYWGQGTQVTVSS | low polyreactivity |
| QVQLVESGGGLVQAGGSLRLSCAASGSTFEDYAMGGYRQAPGKERELVAAISHIGGSTYYADSVKGRFTISRDNAKNTVYLQMNSLKPEDTAVYYCAKGGFSSKFDFWGQGTQVTVSS | low polyreactivity |
| QVQLVESGGGLVQAGGSLRLSCAASGSTFEDYAMGWYTQAPGKERELVAAINKTGGSTNYADSVKGRFTISRDNAKNTVYLQMNSLKPEDTAVYYCAADGSNYSASVAAFPYRVVYWGQGTQVTVSS | low polyreactivity |
| QVQLVESGGGLVQAGGSLRLSCAASGSTFEFYAMGWYRQAPGKERELVAAIWRGGSTHYADSVKGRFTISRDNAKNTVYLQMNSLKPEDTAVYYCAASPYIFWRFEYWGQGTQVTVSS | low polyreactivity |
| QVQLVESGGGLVQAGGSLRLSCAASGSTFEPYAMGCYRQAPGKERELVAAISWSGGSTYYADSVKGRFTISRDNAKNTVDLQMNSLKPEDTAVYYCAAESGVPYYLPVVIYYYWGQGTQVTVSS | high polyreactivity |
| QVQLVESGGGLVQAGGSLRLSCAASGSTFERYVMGWYRQRLGKKGSWLPVLNHNGGSTYYADSVKGRFTISRDNAKNTVYLQMNSLKPEDTAVYYCAASFRTVLDFGYWGQGTQVTVSS | low polyreactivity |
| QVQLVESGGGLVQAGGSLRLSCAASGSTFESNAMGWYRQAPGKERELVASISGSGGSTFYADSVKGRFTISRDNAKNTVYLQMNSLKPEDTAVYYCNRGRDEYDYWGQGTQVTVSS | low polyreactivity |
| QVQLVESGGGLVQAGGSLRLSCAASGSTFESYAMGWYRQAHGKERELVASISRSGGTTFYADSVKGRFTISRDNAKNTVYLQMNSLKPEDTAVYYCAAKRRRLGGDYWGQGTQVTVSS | high polyreactivity |
